Results on 19 molecules are retold here after article PMC5340008 (BMC Biochemistry, 2017).

Numbering of substitutions follows the chain as printed.

The target of experiment [1] is Bacillus anthracis Bla1 β-lactamase (Bacillus anthracis).
Experiment [2] addresses TEM-1 β-lactamase (UniProt P62593 24-286). The experiment is described as follows: β-lactamase inhibition assay (nitrocefin hydrolysis, Morrison tight-binding fit); increasing concentrations of BLIP incubated with 1 nM β-lactamase for 1 h at room temperature in 50 mM sodium phosphate pH 7.0; nitrocefin added at its Km, initial velocity at 482 nm; Ki calculated from Ki app. The settings on record: both partners purified.

Experiment [3] concerns the target KPC-2 β-lactamase (UniProt Q9F663 25-293). The description is as above. Particulars: both partners purified.

In turn, “β-lactamase inhibitory protein (BLIP), wild type (from UniProt P35804 37-201) (natural protein)” showed a Ki in experiment [1] of 2.5 nM.

B1: BLIP [change] (natural protein)
chain: AGVMTGAKFTQIQFGMTRQQVLDIAGAENCETGGSFGDSIHCRGHAAGDQYAYATFGFTSAAADAKVDSKSQEKLLAPSAPTLTLAKFNQVTVGMTRAQVLATVGQGSCTTWSEYYPAYPSTAGVTLSLSCFDVDGYSSTGFYRGSAHLWFTDGVLQGKRQWDLV
Take B1: the figures for the Ki in experiment [2] and in experiment [3] were 0.24 nM and 1 nM, respectively.

B2: BLIP [change] (natural protein)
chain: B1 chain with Q50P
For the molecule B2, the results for the Ki in experiment [2] and in experiment [3] were 40 nM and 5 nM, respectively.

B3: BLIP [change] (natural protein)
chain: B1 chain with Q50A
Turning to B3, in experiment [3], the Ki is 1.9 nM.

B4: BLIP [change] (natural protein)
chain: B1 chain with Q50D
B4: the Ki was 160 nM in experiment [2] and 3.2 nM in experiment [3].

B5: BLIP [change] (natural protein)
chain: B1 chain with Q50V
On to B5, for which the values for the Ki in experiment [2] and in experiment [3] were 3.5 nM and 10 nM, respectively.

B6: BLIP [change] (natural protein)
chain: B1 chain with Q50W
Turning to B6, the Ki in experiment [2] is 11 nM; in experiment [3], 1.1 nM.

B7: BLIP [change] (natural protein)
chain: B1 chain with Q50E
Take B7: the Ki in experiment [2] was 76 nM; in experiment [3], 5.5 nM.

B8: BLIP [change] (natural protein)
chain: B1 chain with Q50S
As to B8, the values for the Ki in experiment [2] and in experiment [3] were 1.1 nM and 5 nM, respectively.

B9: BLIP [change] (natural protein)
chain: B1 chain with Q50R
For B9, the Ki was 69 nM in experiment [2] and 11 nM in experiment [3].

B10: BLIP [change] (natural protein)
chain: B1 chain with Q50G
For B10, the Ki in experiment [2] was 0.4 nM; in experiment [3] it was 0.72 nM.

B11: BLIP [change] (natural protein)
chain: B1 chain with Q50F
With B11, the values for the Ki in experiment [2] and in experiment [3] were 10.3 nM and 15 nM, respectively.

B12: BLIP [change] (natural protein)
chain: B1 chain with Q50M
Regarding B12, the results for the Ki in experiment [2] and in experiment [3] were 0.11 nM and 0.5 nM, respectively.

B13: BLIP [change] (natural protein)
chain: B1 chain with Q50T
On to B13, for which the Ki in experiment [2] was 2.5 nM; in experiment [3], 3.5 nM.

B14: BLIP [change] (natural protein)
chain: B1 chain with Q50K
With B14, the results for the Ki in experiment [2] and in experiment [3] were 195 nM and 260 nM, respectively.

B15: BLIP [change] (natural protein)
chain: B1 chain with Q50L
Regarding B15, the Ki in experiment [2] is 0.17 nM; in experiment [3] it was 0.7 nM.

B16: BLIP [change] (natural protein)
chain: B1 chain with Q50C
B16: the Ki in experiment [2] was 60 nM; in experiment [3] it was 42 nM.

B17: BLIP [change] (natural protein)
chain: B1 chain with Q50H
Consider B17, for which the results for the Ki in experiment [2] and in experiment [3] were 5 nM and 1.4 nM, respectively.

B18: BLIP [change] (natural protein)
chain: B1 chain with Q50N
As to B18, the values for the Ki in experiment [2] and in experiment [3] were 7.8 nM and 3.8 nM, respectively.
